The source of these data is patent US10500249B2, “Compositions and methods for preventing or treating diseases, conditions, or processes characterized by aberrant fibroblast proliferation and extracellular matrix deposition” (MOERAE MATRIX, INC., priority 2014, dated 2019).

Experiment in all cases: Kinase Profiling Assay
Assay type in all cases: biochemical
What all share (settings): 100 μM

One assay deals with T1, MST3 (h) (Homo sapiens, UniProt Q9Y6E0).
T1 construct: purchased Millipore
Here is the method: (§1) Every kinase activity measurement was conducted in duplicate.
(§2) Specifically, in these assays, a positively charged substrate is phosphorylated with a radiolabeled phosphate group from an ATP if the kinase is not inhibited by an inhibitor peptide. The positively charged substrate then is attracted to a negatively charged filter membrane, quantified with a scintillation counter, and compared to a 100% activity control.
(§3) In addition to determining the IC50 of the compound, the specificity of MK2 inhibitory peptides was assessed by examining activities of all 266 human kinases available for testing in the Millipore kinase profiling service (Table 1).

Another assay has as its target RIPK2 (h) (Homo sapiens, UniProt O43353). Here is the method: as §1, §2, §3
The next assay addresses EphA4 (h) (Homo sapiens, UniProt P54764). Here is the method:
as §1, §2, §3

The next assay deals with T2, NEK6 (h) (Homo sapiens, UniProt Q9HC98).
T2 construct: purchased Millipore
T2 sequence (Q9HC98 whole entry): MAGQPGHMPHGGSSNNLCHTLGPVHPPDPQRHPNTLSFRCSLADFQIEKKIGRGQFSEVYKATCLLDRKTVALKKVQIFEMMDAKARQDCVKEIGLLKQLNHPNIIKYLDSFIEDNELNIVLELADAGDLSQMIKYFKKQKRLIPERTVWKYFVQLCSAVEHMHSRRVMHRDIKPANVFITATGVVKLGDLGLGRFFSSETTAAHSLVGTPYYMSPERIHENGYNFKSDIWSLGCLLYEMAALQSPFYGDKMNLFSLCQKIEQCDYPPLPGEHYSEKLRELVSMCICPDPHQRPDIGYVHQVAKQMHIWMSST
Here is the method: as §1, §2, §3

The target of a further assay is T3, TAK1 (h) (Homo sapiens, UniProt O43318).
T3 sequence (O43318 with tags, fused parts or gaps limits assumed): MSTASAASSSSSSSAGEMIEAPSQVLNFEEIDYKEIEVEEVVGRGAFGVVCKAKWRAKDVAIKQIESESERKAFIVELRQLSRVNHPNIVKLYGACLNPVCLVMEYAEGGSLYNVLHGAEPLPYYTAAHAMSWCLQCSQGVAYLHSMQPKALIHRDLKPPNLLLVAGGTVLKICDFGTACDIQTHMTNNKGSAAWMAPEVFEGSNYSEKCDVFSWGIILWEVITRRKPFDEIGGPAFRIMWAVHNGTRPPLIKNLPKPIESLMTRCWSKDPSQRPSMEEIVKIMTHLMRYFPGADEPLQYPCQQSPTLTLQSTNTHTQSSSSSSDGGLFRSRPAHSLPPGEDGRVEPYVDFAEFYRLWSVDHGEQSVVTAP
The procedure: as §1, §2, §3

In a further assay the target is T4, EphB2 (h) (Homo sapiens, UniProt P29323).
T4 sequence (P29323 19-1055): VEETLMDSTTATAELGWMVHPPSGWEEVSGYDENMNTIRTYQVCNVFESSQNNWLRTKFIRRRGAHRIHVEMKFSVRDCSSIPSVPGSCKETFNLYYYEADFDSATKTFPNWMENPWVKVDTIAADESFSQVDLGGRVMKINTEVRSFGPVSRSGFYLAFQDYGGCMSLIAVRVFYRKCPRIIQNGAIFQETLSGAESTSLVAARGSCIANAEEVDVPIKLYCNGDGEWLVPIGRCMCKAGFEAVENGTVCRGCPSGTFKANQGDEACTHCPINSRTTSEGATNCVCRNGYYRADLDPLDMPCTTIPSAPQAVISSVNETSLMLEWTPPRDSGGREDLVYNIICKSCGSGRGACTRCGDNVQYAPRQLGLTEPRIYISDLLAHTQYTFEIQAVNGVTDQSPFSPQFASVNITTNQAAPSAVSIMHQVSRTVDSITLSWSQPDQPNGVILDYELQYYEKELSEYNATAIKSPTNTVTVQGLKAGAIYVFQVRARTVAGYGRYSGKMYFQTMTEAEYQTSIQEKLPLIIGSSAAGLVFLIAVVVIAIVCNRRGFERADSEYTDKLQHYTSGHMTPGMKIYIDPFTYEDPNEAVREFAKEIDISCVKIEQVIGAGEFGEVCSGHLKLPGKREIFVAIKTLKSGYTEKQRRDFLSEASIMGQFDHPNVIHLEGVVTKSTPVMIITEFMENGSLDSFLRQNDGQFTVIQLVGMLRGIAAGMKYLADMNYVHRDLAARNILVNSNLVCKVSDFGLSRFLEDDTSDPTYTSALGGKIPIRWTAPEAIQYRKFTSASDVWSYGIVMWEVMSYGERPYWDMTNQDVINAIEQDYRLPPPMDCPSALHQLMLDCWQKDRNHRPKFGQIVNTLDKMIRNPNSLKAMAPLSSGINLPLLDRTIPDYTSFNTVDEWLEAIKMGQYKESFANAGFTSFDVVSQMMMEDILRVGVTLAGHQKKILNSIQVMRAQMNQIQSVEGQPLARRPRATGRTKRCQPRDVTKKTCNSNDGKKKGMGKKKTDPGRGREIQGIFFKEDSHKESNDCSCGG
Here is the method: as §1, §2, §3

A further assay addresses T5, GSK3α (h) (Homo sapiens, UniProt P49840).
T5 construct: purchased Millipore
Here is the method: as §1, §2, §3

In another assay the target is Ros (h) (Homo sapiens, UniProt P08922). Here is the method: as §1, §2, §3
For the next assay, the target named is T6, PDGFRα (V561D) (h) (Homo sapiens, UniProt P16234, V561D).
T6 construct: purchased Millipore
T6 sequence (P16234 24-1089 V561D): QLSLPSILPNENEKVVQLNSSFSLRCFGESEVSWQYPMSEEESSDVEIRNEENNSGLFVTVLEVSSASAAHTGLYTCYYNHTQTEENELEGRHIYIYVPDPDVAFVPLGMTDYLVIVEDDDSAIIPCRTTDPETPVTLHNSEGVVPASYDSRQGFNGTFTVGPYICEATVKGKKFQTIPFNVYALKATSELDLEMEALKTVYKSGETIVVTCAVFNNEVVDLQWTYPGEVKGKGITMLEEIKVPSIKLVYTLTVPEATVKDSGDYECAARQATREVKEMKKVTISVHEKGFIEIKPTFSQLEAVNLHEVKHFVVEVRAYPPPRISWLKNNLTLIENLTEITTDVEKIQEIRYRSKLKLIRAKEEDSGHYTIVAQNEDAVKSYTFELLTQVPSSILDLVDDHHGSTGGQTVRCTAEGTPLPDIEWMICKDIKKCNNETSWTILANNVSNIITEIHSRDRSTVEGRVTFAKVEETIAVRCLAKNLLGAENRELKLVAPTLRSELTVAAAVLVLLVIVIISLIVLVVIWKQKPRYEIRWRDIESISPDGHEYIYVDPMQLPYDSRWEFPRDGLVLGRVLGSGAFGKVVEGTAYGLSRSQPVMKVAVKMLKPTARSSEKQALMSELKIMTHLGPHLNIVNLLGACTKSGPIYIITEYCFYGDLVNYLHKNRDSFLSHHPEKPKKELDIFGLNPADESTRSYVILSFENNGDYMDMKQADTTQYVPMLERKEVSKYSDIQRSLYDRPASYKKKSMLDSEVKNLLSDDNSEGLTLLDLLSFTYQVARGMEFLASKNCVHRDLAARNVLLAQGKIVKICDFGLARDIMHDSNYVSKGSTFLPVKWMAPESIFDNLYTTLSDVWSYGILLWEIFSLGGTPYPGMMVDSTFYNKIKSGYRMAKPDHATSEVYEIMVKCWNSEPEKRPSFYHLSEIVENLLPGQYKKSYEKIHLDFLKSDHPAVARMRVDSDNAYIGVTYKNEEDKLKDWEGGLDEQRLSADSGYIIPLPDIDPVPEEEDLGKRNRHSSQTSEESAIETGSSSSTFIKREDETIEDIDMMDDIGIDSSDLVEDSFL
The procedure: as §1, §2, §3

The next assay has as its target SRPK1 (h) (Homo sapiens, UniProt Q96SB4). The procedure: as §1, §2, §3
A further assay has as its target T7, PKCζ (h) (Homo sapiens, UniProt Q05513).
T7 sequence (Q05513 1-592): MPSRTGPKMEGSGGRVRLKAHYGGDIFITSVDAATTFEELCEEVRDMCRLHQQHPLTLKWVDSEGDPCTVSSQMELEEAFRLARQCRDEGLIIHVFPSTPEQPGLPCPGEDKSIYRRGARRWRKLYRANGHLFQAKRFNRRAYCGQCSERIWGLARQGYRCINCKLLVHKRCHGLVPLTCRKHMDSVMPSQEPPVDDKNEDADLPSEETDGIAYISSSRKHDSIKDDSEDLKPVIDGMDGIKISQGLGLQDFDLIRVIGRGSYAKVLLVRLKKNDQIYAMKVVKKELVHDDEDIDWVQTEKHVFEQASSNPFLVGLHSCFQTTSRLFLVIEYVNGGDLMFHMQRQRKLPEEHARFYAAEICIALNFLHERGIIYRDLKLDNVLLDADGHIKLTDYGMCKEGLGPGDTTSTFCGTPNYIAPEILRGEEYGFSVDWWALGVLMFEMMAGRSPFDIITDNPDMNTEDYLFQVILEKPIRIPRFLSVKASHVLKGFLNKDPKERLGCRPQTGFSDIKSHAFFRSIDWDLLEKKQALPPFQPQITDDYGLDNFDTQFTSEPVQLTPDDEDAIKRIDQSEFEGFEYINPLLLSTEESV
The procedure: as §1, §2, §3

A further assay deals with PKCθ (h) (Homo sapiens, UniProt Q04759). Here is the method:
as §1, §2, §3

The next assay deals with FGFR3 (h) (Homo sapiens, UniProt P22607). Here is the method:
as §1, §2, §3

T1 sequence (Q9Y6E0 whole entry): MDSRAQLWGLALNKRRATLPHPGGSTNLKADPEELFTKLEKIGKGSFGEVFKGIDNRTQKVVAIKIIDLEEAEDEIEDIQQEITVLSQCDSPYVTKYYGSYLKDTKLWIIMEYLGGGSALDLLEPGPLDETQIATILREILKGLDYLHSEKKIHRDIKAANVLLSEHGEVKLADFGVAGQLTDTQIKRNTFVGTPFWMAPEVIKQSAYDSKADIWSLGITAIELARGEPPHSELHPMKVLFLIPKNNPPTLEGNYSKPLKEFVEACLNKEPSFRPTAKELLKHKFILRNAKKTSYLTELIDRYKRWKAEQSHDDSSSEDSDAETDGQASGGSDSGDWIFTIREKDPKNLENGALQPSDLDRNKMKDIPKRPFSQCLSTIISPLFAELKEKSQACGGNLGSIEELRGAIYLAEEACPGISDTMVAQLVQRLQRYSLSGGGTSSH
EphA4 (h), sequence (P54764 20-986): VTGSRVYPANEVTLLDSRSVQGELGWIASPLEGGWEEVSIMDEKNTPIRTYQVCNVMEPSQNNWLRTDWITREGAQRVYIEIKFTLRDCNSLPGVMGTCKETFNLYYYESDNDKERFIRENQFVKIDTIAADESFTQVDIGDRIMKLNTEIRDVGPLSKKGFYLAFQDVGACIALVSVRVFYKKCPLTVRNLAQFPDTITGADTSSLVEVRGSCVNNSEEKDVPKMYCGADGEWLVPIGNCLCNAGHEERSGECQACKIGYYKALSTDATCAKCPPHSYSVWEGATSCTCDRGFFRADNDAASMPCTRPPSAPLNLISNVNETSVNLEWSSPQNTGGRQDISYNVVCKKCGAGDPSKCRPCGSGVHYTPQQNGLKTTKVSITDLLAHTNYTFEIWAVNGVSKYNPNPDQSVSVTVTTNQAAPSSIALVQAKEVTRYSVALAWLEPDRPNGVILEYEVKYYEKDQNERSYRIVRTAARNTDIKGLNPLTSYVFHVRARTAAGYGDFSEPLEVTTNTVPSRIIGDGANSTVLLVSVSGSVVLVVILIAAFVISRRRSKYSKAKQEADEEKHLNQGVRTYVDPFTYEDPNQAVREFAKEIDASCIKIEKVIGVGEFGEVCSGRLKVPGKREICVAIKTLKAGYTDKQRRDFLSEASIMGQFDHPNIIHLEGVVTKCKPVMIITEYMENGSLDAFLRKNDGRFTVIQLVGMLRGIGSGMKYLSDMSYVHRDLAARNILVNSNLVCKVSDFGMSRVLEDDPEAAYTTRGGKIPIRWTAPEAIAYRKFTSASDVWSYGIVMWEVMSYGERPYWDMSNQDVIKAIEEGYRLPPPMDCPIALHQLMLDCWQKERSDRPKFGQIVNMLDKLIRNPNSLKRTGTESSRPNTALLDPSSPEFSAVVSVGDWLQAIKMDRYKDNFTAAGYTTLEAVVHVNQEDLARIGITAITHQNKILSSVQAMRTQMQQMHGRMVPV
FGFR3 (h), sequence (P22607 23-806): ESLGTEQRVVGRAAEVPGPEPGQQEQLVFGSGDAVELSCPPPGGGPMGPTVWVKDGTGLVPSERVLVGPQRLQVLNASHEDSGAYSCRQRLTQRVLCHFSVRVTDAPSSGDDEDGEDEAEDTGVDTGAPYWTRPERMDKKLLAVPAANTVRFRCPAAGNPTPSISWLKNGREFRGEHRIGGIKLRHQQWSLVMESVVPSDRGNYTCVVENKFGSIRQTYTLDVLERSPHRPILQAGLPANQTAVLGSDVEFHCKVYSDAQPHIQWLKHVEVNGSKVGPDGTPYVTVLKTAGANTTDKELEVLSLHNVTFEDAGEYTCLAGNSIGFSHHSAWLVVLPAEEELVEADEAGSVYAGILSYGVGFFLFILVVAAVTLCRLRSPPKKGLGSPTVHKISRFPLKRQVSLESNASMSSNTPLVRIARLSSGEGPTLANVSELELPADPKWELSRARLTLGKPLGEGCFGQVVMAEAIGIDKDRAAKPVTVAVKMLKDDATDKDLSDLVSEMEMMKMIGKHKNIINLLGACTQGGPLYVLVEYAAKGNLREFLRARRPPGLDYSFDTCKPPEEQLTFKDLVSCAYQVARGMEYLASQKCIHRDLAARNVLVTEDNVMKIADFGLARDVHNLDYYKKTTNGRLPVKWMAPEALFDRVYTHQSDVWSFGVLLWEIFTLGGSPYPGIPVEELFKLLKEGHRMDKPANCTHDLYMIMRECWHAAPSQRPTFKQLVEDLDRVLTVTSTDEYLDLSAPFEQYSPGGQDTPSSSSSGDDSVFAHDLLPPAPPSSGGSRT
SRPK1 (h), sequence (Q96SB4 whole entry): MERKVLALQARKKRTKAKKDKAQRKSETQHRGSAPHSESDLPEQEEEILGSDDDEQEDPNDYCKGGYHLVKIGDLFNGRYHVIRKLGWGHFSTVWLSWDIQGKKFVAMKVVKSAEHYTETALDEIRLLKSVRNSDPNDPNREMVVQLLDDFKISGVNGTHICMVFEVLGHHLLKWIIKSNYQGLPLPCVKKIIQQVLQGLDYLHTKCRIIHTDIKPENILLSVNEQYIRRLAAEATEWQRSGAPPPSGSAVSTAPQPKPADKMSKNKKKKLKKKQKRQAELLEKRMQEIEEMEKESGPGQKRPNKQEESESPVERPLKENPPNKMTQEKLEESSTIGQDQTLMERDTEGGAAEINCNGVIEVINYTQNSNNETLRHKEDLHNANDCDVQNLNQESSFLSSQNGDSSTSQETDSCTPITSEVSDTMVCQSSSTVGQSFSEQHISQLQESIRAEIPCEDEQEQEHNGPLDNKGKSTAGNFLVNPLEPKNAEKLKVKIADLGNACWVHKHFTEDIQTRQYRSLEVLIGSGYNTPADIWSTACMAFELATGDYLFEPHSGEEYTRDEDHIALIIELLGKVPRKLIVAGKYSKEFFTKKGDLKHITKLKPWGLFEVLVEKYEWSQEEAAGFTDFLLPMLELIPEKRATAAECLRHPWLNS
PKCθ (h), sequence (Q04759 whole entry): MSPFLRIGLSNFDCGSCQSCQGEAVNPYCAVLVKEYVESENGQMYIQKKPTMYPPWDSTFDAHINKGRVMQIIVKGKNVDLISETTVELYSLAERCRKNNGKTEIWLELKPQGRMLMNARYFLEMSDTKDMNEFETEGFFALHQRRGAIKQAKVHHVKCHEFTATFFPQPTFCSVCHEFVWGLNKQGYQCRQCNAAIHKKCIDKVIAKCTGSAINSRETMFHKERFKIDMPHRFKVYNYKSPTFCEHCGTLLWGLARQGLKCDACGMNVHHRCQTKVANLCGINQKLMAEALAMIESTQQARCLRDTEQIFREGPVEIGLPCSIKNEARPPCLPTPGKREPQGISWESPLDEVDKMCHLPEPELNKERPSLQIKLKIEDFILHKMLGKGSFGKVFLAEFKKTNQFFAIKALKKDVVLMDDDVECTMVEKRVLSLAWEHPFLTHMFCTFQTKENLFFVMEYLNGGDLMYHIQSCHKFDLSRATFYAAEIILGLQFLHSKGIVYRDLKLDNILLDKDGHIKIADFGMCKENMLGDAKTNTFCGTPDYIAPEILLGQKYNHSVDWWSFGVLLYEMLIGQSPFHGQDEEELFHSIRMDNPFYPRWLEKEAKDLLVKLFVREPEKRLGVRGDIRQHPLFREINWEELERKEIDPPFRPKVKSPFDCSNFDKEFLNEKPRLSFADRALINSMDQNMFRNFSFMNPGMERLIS

In the case of FAKLAARLYRKALARQLGVAA [MMI-0300], the “% activity” value is recorded as 45% with MST3 (h); 97% in the assay with RIPK2 (h); 88% with EphA4 (h); 82% with NEK6 (h); 122% with TAK1 (h); 18% with EphB2 (h). Further, the “% activity” value amounted to 157% with GSK3α (h); 95% with Ros (h); 82% with PDGFRα (V561D) (h); 90% in the assay with SRPK1 (h); 81% in the assay with PKCζ (h); 88% with PKCθ (h).
For the sequence “HRRIKAWLKKIKALARQLGVAA (Mammalian) [MMI-0500]”, the “% activity” value with MST3 (h) was determined as 4%; with RIPK2 (h) it was 30%; with EphA4 (h), 48%; in the assay with NEK6 (h), 49%; in the assay with EphB2 (h) it was 70%; in the assay with GSK3α (h) it was 175%. Further, the “% activity” value is given as 150% in the assay with Ros (h); 10% with FGFR3 (h); 146% in the assay with PDGFRα (V561D) (h); 80% in the assay with SRPK1 (h); 7% with PKCζ (h); 62% with PKCθ (h).
In the case of “YARAAARQARAKALNRQLGVA (Mammalian) [MMI-0200]”, the “% activity” value with MST3 (h) was found to be 95%; in the assay with RIPK2 (h), 98%; with EphA4 (h) it was 127%; with NEK6 (h), 98%; in the assay with TAK1 (h), 124%; in the assay with EphB2 (h), 128%. Also, the “% activity” value worked out at 86% with Ros (h); 208% with FGFR3 (h); 93% in the assay with SRPK1 (h); 98% in the assay with PKCζ (h); 101% in the assay with PKCθ (h).
As for KAFAKLAARLYRKALARQLGVAA [MMI-0400], the “% activity” value with MST3 (h) is given as 36%; in the assay with RIPK2 (h), 98%; with EphA4 (h) it was 65%; with NEK6 (h), 85%; with TAK1 (h) it was 177%; with EphB2 (h) it was 22%. Besides, the “% activity” value with GSK3α (h) was 164%; with Ros (h), 99%; with FGFR3 (h), 0%; with PDGFRα (V561D) (h), 100%; with SRPK1 (h), 96%; with PKCζ (h) it was 75%. In the assay with PKCθ (h), the “% activity” value is reported as 76%.
